Publication PMC2743556

Target: D-galactose receptor (human (endogenous in SHIN3))
Assay: flow cytometry on cells

Q: “TAMRA conjugated avidin (from UniProt P02701 25-152) (ligand)” was tested. Which mean value of fluorescence (FACS flow cytometry) did it give?
A: 10.9
